Laboratory results taken from patent US20220017634A1 (DENALI THERAPEUTICS, published 2022).

Experiments:
[1] = molecular target: T1, human transferrin receptor (human TfR) (human, UniProt P02786 89-760, limits assumed); assay: phage ELISA
T1 construct: Recombinant target coated on plates or biotinylated and captured on streptavidin (ELISA, BLI); also called huTfR
Procedure: (§1) Clones were selected from panning outputs and grown in individual wells of 96-well deep-well plates. The clones were either induced for periplasmic expression using autoinduction media (obtained from EMD Millipore) or infected with helper phage for phage-display of the individual Fc variants on phage. The cultures were grown overnight and spun to pellet E. coli. For phage ELISA, phage containing supernatant was used directly. For periplasmic expression, pellets were resuspended in 20% sucrose, followed by dilution at 4:1 with water, and shaken at 4° C. for 1 hour. Plates were spun to pellet the solids and supernatant was used in the ELISA.
(§2) ELISA plates were coated with target, typically at […] overnight, then blocked with 1% BSA before addition of phage or periplasmic extracts. […] The plates were washed again, and then developed with TMB reagent and quenched with 2N sulfuric acid. Absorbance at 450 nm was quantified using a plate reader (BioTek®) and binding curves were plotted using Prism software where applicable. Absorbance signal for tested clones was compared to negative control (phage or paraplasmic extract lacking Fc). In some assays, soluble holo-transferrin was added during the binding step, typically at significant molar excess (greater than 10-fold excess).
(§3) Individual CH2A2 variants were expressed on the surface of phage and assayed for binding to human TfR, cyno TfR, or an irrelevant control by ELISA. Expression of Fc was confirmed by ELISA against anti-Myc antibody 9E10, which bound to the C-terminal c-Myc epitope tag. […] The three clones from group 1 also bound to cyno TfR, whereas the one clone from group 2 (i.e., clone 2A2.16) was specific for human TfR.

[2] = molecular target: cynomolgus transferrin receptor (cyno TfR) (cynomolgus monkey, UniProt H9EXL1 89-760 (rhesus entry)); assay: phage ELISA
Procedure: as §1, §2, §3

T1 sequence (P02786 89-760 limits assumed): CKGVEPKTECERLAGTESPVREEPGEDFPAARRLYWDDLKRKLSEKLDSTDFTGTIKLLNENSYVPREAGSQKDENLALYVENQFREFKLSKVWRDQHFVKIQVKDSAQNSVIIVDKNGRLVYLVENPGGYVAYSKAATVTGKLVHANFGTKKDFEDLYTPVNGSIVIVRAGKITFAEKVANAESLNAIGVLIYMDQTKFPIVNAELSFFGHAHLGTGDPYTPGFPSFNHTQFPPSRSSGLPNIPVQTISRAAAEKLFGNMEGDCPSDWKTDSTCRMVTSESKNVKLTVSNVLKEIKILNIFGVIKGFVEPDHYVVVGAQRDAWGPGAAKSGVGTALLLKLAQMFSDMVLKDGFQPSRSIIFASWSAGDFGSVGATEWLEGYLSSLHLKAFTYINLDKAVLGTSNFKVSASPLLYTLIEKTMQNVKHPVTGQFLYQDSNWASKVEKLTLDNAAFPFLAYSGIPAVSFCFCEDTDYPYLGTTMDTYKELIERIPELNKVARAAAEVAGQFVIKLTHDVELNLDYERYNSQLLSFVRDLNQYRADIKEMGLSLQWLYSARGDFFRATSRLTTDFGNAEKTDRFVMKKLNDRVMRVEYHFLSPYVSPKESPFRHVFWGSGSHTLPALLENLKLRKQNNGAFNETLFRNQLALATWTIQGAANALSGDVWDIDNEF
Chain of cynomolgus transferrin receptor (cyno TfR) (chain, as listed by the source): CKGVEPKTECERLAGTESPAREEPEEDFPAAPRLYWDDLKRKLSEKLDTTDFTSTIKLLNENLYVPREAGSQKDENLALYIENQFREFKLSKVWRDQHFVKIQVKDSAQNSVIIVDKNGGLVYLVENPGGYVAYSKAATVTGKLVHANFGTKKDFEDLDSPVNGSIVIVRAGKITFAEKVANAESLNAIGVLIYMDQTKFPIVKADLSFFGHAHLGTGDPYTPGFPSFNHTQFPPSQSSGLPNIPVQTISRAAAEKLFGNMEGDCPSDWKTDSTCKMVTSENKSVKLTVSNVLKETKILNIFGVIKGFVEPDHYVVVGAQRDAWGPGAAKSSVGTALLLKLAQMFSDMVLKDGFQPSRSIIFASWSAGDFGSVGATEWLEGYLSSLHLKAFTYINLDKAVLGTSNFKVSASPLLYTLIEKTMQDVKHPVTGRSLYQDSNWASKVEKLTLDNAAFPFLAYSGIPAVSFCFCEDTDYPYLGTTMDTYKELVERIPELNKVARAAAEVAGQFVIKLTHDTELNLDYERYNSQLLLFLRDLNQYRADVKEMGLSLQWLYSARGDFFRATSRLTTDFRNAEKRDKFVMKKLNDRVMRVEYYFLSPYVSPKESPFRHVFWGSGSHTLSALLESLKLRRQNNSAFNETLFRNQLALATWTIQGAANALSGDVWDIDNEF

Binder | binding result [1] | binding result [2]
Clone CH2A2.4, Fc displayed on phage (designed binder, As m16) APELLGGPSVFLFPPKPKDTLMISRTPEVTCVVVDVSHEDPEVSFEWYVDGVPVRWEWQWPREEQYNSTYRVVSVLTVLHQDWLNGKEYKCKVSNKALPAPIEKTISKAKGQPREPQVYTLPPSRDELTKNQVSLTCLVKGFYPSDIAVEWESNGQPENNYKTTPPVLDSDGSFFLYSKLTVDKSRWQQGNVFSCSVMHEALHNHYTQKSLSLSPGK | binds | 
Clone CH2A2.5, Fc displayed on phage (designed binder, As m16) APELLGGPSVFLFPPKPKDTLMISRTPEVTCVVVDVSHEDPEVAFTWYVDGVPVRWEWQNPREEQYNSTYRVVSVLTVLHQDWLNGKEYKCKVSNKALPAPIEKTISKAKGQPREPQVYTLPPSRDELTKNQVSLTCLVKGFYPSDIAVEWESNGQPENNYKTTPPVLDSDGSFFLYSKLTVDKSRWQQGNVFSCSVMHEALHNHYTQKSLSLSPGK | binds | 
Clone CH2A2.1, Fc displayed on phage (designed binder, Fc dimer on phage (pIII fusion with c-Myc and 6xHis tags paired with soluble Fc)) APELLGGPSVFLFPPKPKDTLMISRTPEVTCVVVDVSHEDPEVEFIWYVDGVDVRYEWQLPREEQYNSTYRVVSVLTVLHQDWLNGKEYKCKVSNKALPAPIEKTISKAKGQPREPQVYTLPPSRDELTKNQVSLTCLVKGFYPSDIAVEWESNGQPENNYKTTPPVLDSDGSFFLYSKLTVDKSRWQQGNVFSCSVMHEALHNHYTQKSLSLSPGK | binds | 
Clone CH2A2.16, Fc displayed on phage (designed binder, As m16) APELLGGPSVFLFPPKPKDTLMISRTPEVTCVVVDVSHEDPEVWFEWYVDGVFVGVAYDVPREEQYNSTYRVVSVLTVLHQDWLNGKEYKCKVSNKALPAPIEKTISKAKGQPREPQVYTLPPSRDELTKNQVSLTCLVKGFYPSDIAVEWESNGQPENNYKTTPPVLDSDGSFFLYSKLTVDKSRWQQGNVFSCSVMHEALHNHYTQKSLSLSPGK | binds | no binding
